Tests used:
[1] = target: T1, high affinity SIRP-α D1 variant CV1-3; experiment: SPR, Langmuir fit
T1 chain: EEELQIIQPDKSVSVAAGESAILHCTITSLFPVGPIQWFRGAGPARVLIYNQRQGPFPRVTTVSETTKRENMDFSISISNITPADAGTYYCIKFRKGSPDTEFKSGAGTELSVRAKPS
Procedure, shortened: (§1)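 scFv-Fc antibody clones were captured from pre-filtered culture media onto anti-human IgG Fc, amine-coupled at about 4000 RU on a GLC chip in a ProteOn XPR36 instrument. SIRP analytes were passed over in PBS pH 7.4 with 0.01% Tween-20 at 25° C, and responses were double-referenced against interspot and buffer-blank signals. Curves were fitted to a 1:1 Langmuir model. Dissociation rate constants (koff) were taken from those fits.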

[2] = target: T2, mouse 129 SIRP-α D1 domain (mouse (129 strain), UniProt P97797 32-150); experiment: SPR
T2 construct: also called m129
T2 chain: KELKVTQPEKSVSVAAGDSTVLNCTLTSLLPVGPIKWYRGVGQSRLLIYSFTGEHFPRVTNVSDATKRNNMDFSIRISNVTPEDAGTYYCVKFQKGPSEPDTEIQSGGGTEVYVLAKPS
Procedure, shortened: as §1

[3] = target: T3, NOD mouse SIRP-α D1 domain (mouse (NOD strain)); experiment: SPR
T3 chain: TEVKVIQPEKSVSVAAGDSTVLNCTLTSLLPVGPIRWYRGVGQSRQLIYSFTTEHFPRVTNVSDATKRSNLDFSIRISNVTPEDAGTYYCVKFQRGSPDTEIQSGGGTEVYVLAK
Procedure, shortened: as §1

[4] = target: T4, cynomolgus SIRP-α D1 domain (cyno1) (cynomolgus monkey, UniProt Q5TFQ8 30-148 (human entry), limits assumed); experiment: SPR
T4 chain: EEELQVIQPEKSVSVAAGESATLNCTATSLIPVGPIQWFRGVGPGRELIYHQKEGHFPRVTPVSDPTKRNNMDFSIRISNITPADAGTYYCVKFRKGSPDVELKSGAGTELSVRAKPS
Procedure, shortened: as §1

[5] = target: T5, C57BL/6 mouse SIRP-α D1 domain (mouse (C57BL/6 strain), UniProt P97797 32-148); experiment: SPR
T5 sequence: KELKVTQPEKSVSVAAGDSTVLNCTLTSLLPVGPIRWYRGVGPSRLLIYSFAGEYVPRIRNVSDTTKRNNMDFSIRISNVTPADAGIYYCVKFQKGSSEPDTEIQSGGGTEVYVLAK
Procedure, shortened: as §1

[6] = target: T6, cynomolgus SIRP-α D1 domain (cyno2) (cynomolgus monkey, UniProt Q5TFQ8 30-148 (human entry), limits assumed); experiment: SPR
T6 chain: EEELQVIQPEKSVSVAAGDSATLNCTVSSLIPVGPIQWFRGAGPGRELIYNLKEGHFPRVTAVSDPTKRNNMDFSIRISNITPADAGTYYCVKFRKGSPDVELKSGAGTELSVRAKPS
Procedure, shortened: as §1

[7] = target: T7, human SIRP-α v2 D1 domain (human); experiment: SPR, antibody immobilised on GLC chip
T7 construct: also called human v2; human α v2
Procedure: (§2) All experiments were performed at 25° C. using a SPR-based ProteOn XPR36 biosensor (BioRad, Inc, Hercules, Calif.) equipped with GLC or NLC sensor chips. […] Purification was carried out by standard Protein A affinity column chromatography and eluted antibodies were stored in PBS buffer.
(§3) For the method using GLC chip, the analytes were injected and flowed over anti-SIRPα antibodies immobilized (˜1000 RUs) on GLC chips using Proteon™ Amine Coupling Kit. For the immobilization step, GLC chip was activated with EDAC/Sulpho-NHS 1:1 (Biorad) diluted 1/100 for 300 s at 25 μL/min. Anti-SIRPα antibodies were diluted to 80 nM concentration in 10 mM sodium acetate buffer pH 4.5 and immobilized to the chip at 30 μL/min for 50 s. Chip was inactivated with ethanolamine for 300 s at 25 μL/min. The analytes (e.g., SIRP-α from different species, SIRP-β, SIRP-γ) were injected in a “one-shot” kinetic mode at nominal concentrations of 100, 33, 11, 3.7, 1.2 and 0 nM. Association times were monitored for 90 s at 100 μL/min, and dissociation times were monitored for 1200 s. The surfaces were regenerated with a 2:1 v/v blend of Pierce IgG elution buffer/4M NaCl. […]

[8] = target: T8, cynomolgus SIRP-α D1 domain (SEQ ID NO:11) (cynomolgus, UniProt Q5TFQ8 30-148 (human entry), limits assumed); experiment: SPR, antibody immobilised on GLC chip
T8 construct: also called cyno1
T8 chain: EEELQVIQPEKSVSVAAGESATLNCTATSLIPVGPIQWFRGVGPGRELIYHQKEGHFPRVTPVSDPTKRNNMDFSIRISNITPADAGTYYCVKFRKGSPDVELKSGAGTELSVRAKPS
Procedure: as §2, §3

[9] = target: T9, C57BL/6 mouse SIRP-α D1 domain (mouse (C57BL/6 strain), UniProt P97797 32-148); experiment: SPR, antibody immobilised on GLC chip
T9 sequence: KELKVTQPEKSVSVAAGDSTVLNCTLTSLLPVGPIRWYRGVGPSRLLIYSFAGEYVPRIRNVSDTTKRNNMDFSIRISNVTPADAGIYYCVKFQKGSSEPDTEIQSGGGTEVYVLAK
Procedure: as §2, §3

[10] = target: T10, human SIRPγ isoform 1 (human, UniProt Q9P1W8 29-147); experiment: SPR, antibody immobilised on GLC chip
T10 construct: also called sirpg; sirp-g
T10 sequence (Q9P1W8 29-147 limits assumed): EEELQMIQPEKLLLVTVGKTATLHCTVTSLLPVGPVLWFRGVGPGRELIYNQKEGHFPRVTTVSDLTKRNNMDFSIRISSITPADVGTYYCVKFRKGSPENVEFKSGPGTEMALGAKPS
Procedure: as §2, §3

[11] = target: T11, human SIRP-α v1 D1 domain (human, UniProt P78324 31-149); experiment: SPR, antibody immobilised on GLC chip
T11 construct: also called human v1; human α v1
Procedure: as §2, §3

[12] = target: T12, BALB/c mouse SIRP-α D1 domain (mouse (BALB/c strain)); experiment: SPR, antibody immobilised on GLC chip
T12 chain: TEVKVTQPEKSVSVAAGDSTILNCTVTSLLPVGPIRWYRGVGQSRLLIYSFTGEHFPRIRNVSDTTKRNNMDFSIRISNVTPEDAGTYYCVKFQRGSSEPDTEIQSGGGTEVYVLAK
Procedure: as §2, §3

[13] = target: T13, NOD mouse SIRP-α D1 domain (mouse (NOD strain)); experiment: SPR, antibody immobilised on GLC chip
T13 chain: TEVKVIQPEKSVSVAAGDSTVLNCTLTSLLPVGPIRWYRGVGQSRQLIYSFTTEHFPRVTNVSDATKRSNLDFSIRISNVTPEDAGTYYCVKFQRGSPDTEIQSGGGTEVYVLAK
Procedure: as §2, §3

[14] = target: T14, human SIRP-α v1 D1 domain (human, UniProt P78324 31-149); experiment: SPR, antibody immobilised on GLC chip; sentence of the text that cites Table M
T14 construct: biotinylated and captured on avidin in the ELISA; also called human v1
Procedure, shortened: (§4)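 SIRP analytes were run over antibody surfaces in PBS pH 7.4 with 0.01% Tween-20 at 25° C, using one-shot injections at 100, 33, 11, 3.7, 1.2 and 0 nM. The antibodies, purified by Protein A, had been amine-coupled (~1000 RU) to a GLC chip of a ProteOn XPR36 biosensor from an 80 nM solution in 10 mM sodium acetate pH 4.5. Association lasted 90 s at a flow of 100 μL/min, and dissociation lasted 1200 s. KD equals kd/ka, obtained by fitting double-referenced data globally to a Langmuir model.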

[15] = target: T15, human SIRP-α v2 D1 domain (human); experiment: as above
T15 construct: biotinylated and captured on avidin in the ELISA; also called human v2
Procedure, shortened: as §4

B1: S45 (scFv, V domains shown)
VH: AVTLDESGGGLQTPGGALSLVCKASGFTFSSYAMGWVRQAPGKGLEWVAGIDDDGSTANYGPAVKGRATISRDNGQSTVRLQLNNPRAEDSGTYFCAKASVTGWSAHISGRLDTWGHGTEVIVSS
VL: ALTQPASVSANPGETVKITCSGGGIYYYGWYQQKSPGSAPVTLIYENDKRPSDIPSRFSGSTSGSTNTFTITGVQAEDEAVYYCGGYDSNTTSGIFGAGTTLTVL
notes: also called clone 45; scFv-Fc form of AB45
koff [1]: 4.76e-05 s⁻¹
binding result [2]: no binding (tested: Koff > 5 × 10^3 (legend))
binding result [3]: no binding (tested: Koff > 5 × 10^3 (legend))
binding result [4]: no binding (tested: Koff > 5 × 10^3 (legend))
binding result [5]: no binding (tested: Koff > 5 × 10^3 (legend))
binding result [6]: no binding (tested: Koff > 5 × 10^3 (legend))

B2: antibody 136 variant MutRv_I2T/mut_V34M (antibody, human IgG1, V domains shown)
VH: EVQLVESGGGVVQPGRSLRLSCAASGFTFSSYDMNWVRQAPGKGLEWVSLISGSGEIIYYADSVKGRFTISRDNSKNTLYLQMNSLRAEDTAVYYCAKENNRYRFFDDWGQGTLVTVSS
VL: ETVLTQSPGTLSLSPGERATLSCRASQSVYTYLAWYQQKPGQAPRLLIYGASSRATGIPDRFSGSGSGTEFTLTISSLQSEDFAVYYCQQYYDRPPLTFGGGTKVEIK
notes: Human IgG1 with L234A/L235A/G237A/N297A; Labels are light chain/heavy chain
Kd [7]: 1.74 nM
Kd [8]: 2.11 nM
Kd [9]: 13.8 nM
Kd [10]: 33.5 nM
Kd [11]: 0.551 nM
Kd [12]: 0.361 nM
Kd [13]: 0.596 nM

B3: 119 antibody variant with mutated heavy and light chains (antibody, human IgG1, V domains shown)
VH: EVQLLESGGGVVQPGGSLRLSCAASGFSFSNFAVTWVRQAPGKGLEWVSTIGSGDTYYADSVKGRFTISRDNSKNTLYLQMNSLRAEDTAVYYCAKDSTVSWSGDFFDYWGQGTLVTVSS
VL: EIVLTQSPATLSVSPGERATLSCRASQNVKNDLAWYQQKPGQAPRLLIYAARIRETGIPARFSGSGSGTEFTLTISSLQSEDFAVYYCQQYYDWPPFTFGGGTKVEIK
notes: human IgG1 with L234A, L235A, G237A, N297A
Kd [14]: 0.317 nM
Kd [15]: 0.0875 nM
